For series [1], the target named is T1, DNMT1 (human, UniProt P26358 1-1616). The series is described as follows: EMSA; 100 mM KCl; 50 mM Tris-HCl pH 7.5, 100 mM KCl (or LiCl), 2.5 mM MgCl2, 0.1 mM ZnCl2, 2 mM BME, 0.05% NP40, 5% glycerol, 0.1 mg/mL BSA, 0.1 mg/mL yeast tRNA; 30 C 1 h; 1% agarose gel in 1x TBE at 4 C. As to conditions: protein: recombinant; tags: MBP tag cleaved with PreScission protease; label: 5' 32P; one pUG-fold in K+.

In series [2] the target is T1, DNMT1. The series is described as above. The conditions noted are these: protein: recombinant; tags: MBP tag cleaved with PreScission protease; label: 5' 32P; canonical G4.
Series [3] addresses T1, DNMT1. The series is described as above. As to conditions: protein: recombinant, tags: MBP tag cleaved with PreScission protease; for Kd: label: 5' 32P.
Series [4] has as its target T1, DNMT1. Kind of series: EMSA; 100 mM KCl; undetectable; 50 mM Tris-HCl pH 7.5, 100 mM KCl (or LiCl), 2.5 mM MgCl2, 0.1 mM ZnCl2, 2 mM BME, 0.05% NP40, 5% glycerol, 0.1 mg/mL BSA, 0.1 mg/mL yeast tRNA; 30 C 1 h; 1% agarose gel in 1x TBE at 4 C. The conditions noted are these: protein: recombinant; tags: MBP tag cleaved with PreScission protease; label: 5' 32P; unstructured.

T1 sequence (P26358 whole entry): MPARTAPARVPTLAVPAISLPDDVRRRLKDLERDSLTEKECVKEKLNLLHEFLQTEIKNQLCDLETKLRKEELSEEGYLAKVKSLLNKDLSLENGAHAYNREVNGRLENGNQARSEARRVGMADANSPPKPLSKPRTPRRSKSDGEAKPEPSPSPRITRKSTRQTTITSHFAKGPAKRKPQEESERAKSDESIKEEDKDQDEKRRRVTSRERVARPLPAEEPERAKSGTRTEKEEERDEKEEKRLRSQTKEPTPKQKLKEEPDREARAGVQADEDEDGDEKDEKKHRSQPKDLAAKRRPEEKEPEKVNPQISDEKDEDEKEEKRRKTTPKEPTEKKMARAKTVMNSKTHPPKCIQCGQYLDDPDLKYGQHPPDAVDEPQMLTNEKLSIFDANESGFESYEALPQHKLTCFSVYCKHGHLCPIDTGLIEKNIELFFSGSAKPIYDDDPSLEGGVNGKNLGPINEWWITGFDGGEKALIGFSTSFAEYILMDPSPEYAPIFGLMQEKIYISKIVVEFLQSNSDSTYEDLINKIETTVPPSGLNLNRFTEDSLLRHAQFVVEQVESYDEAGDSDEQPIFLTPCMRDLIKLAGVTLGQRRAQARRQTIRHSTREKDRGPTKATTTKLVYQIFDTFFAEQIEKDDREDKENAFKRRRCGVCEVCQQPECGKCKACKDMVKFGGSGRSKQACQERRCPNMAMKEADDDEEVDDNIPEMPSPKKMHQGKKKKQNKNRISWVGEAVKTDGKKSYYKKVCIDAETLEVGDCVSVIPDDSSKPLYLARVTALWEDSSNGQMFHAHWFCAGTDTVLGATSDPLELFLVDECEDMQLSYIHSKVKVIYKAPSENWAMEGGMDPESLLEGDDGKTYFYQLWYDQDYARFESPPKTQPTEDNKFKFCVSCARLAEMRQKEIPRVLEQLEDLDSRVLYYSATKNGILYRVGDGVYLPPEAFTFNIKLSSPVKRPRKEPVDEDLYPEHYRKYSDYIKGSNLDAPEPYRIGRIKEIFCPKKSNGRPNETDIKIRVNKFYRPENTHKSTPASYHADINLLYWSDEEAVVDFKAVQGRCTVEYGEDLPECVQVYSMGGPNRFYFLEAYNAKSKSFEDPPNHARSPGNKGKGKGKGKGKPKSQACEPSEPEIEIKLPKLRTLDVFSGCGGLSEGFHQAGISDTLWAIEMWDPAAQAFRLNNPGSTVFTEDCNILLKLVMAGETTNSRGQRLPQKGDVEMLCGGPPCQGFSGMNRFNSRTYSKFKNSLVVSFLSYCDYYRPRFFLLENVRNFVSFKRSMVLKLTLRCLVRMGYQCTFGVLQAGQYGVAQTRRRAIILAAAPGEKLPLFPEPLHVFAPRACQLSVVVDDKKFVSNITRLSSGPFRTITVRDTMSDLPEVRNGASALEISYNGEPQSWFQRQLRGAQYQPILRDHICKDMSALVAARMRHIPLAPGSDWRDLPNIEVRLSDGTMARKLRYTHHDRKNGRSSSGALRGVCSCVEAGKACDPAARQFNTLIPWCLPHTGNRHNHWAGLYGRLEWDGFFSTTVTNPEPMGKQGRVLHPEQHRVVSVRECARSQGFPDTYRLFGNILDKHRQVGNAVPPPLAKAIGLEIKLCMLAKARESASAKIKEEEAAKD

B1: (GU)12 (structured_RNA)
RNA: GUGUGUGUGUGUGUGUGUGUGUGU
B1: the binding signal in series [1] is 5 fold weaker than (GU)20.

B2: (GGAA)10 (structured_RNA)
RNA: GGAAGGAAGGAAGGAAGGAAGGAAGGAAGGAAGGAAGGAA
In the case of B2, the binding signal in series [2] was 3 fold weaker than (GU)20.

B3: (GU)20 (structured_RNA)
RNA: GUGUGUGUGUGUGUGUGUGUGUGUGUGUGUGUGUGUGUGU
For B3, the Kd – broadly, a measure of binding affinity in units of concentration – in series [3] (pUG-fold (noncanonical G4) in K+) came out at 69 nM.

B4: (GU)30 (structured_RNA)
RNA: GUGUGUGUGUGUGUGUGUGUGUGUGUGUGUGUGUGUGUGUGUGUGUGUGUGUGUGUGUGU
Take B4: in series [3] (pUG-fold, possibly two), the Kd was 13 nM.

B5: (A)40 (ssRNA)
RNA: AAAAAAAAAAAAAAAAAAAAAAAAAAAAAAAAAAAAAAAA
On to B5, for which, in series [4], the binding result was “no binding”.

B6: Hemimethylated DNA substrate (dsDNA)
DNA 1: TACGTATCCGTATCCGGTTACGTATCCGAATCCGTACCGT
DNA 2: ACGGTACGGATTCGGATACGTAACCGGATACGGATACGTA
modifications: 5mC at strand 1 positions 3,9,15,21,27,33,38
As for B6, in series [3] (label: 32P end label, blunt), the binding result is listed as “binds”.
